Assay: yeast display, Sf9 membrane polyspecificity reagent, FACS + sequencing; frameworks hold sequencing errors
Outline: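 Genes from sorted yeast were amplified by colony PCR, read by MiSeq 2 × 250 sequencing and filtered on CDR length. These cells carried a synthetic nanobody library in Saccharomyces cerevisiae BJ5465 and were sorted by FACS into low and high (top ~1%) gates on anti-HA and streptavidin fluorescence. Polyreactivity is labelled according to the gate of origin.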

Sequence	polyreactivity (PSR sort gate)
QVQLVESGGGLVQAGGSLRLSCAASGRTFYSNAMGWYRESPGKERELVAAISRSGGTTYYADSVKGRFTISRDHAKNTVSLLMNSLKPEDTAVYYCNTLRYGTTGKYDYWGQGTQVTVSS	high polyreactivity
QVQLVESGGGLVQAGGSLRLSCAASGRTFYSNAMGWYRQAPGKERELVAAISYRGGRTYYADSVKGRFTISRDNAKNTVYLQMNSLKPEDTAVYYSAADAYVLFYGDWYECDYWGQGTQVTVSS	high polyreactivity
QVQLVESGGGLVQAGGSLRLSCAASGRTFYSNAMGWYRQPPGKERELVAAIRRSGGSTYYADSVKGRFTISRDNAKNTVYLQMNSLKPEDTAVYYCNAPHHRYDWGQGTQVTVSS	high polyreactivity
QVQLVESGGGLVQAGGSLRLSCAASGRTFYSYAMGGYRQAPGKERELVARITWSGGTYYADSVKGRFTISRDNAKNTVYLQMNSLKPEDTAVYYCAAKYWKWYHYGFGYWGQGTQVTVSS	high polyreactivity
QVQLVESGGGLVQAGGSLRLSCAASGRTFYSYAMGWYRQAPGKEREFVAAISVRGVITYYADSVKGRFTISRDNAKNTVYLQMNSLKPEDTAVYDCAADWSGYYTYDYWGQGTQVTVSS	low polyreactivity
QVQLVESGGGLVQAGGSLRLSCAASGRTFYSYAMGWYRQAPGKERELVAAISRGGNTYYADSVKGRFTISRDNAKNTVYLQMNSLKPEDTAVYYCAVVRVTYYASIYHRGYDYWGQGTQVTVSS	low polyreactivity
QVQLVESGGGLVQAGGSLRLSCAASGRTFYSYAMGWYRQAPGKERELVAAITWRGVRTYYADSVKGRFTISRDNAKNTVYLQMNSLKPEDTAVYYCAAGGVRTRSWDTSLINRYGYWGQGTQVTVSS	high polyreactivity
QVQLVESGGGLVQAGGSLRLSCAASGRTFYSYAMGWYRQAPGKERELVASISSSGASTYYADSVKGRFTISRDNAKNTVYLQMNSLKPEDTAVYYCNAVWRTSFITIYGFDYWGQGTQVTVSS	high polyreactivity
QVQLVESGGGLVQAGGSLRLSCAASGRTFYSYAMGWYRQAPGKERELVATITNGDTTNYADSVKGRFTISRDNAKNTVYLQMNSLKPEDTAVYYCAKDISPGYDEYDYWGQGTQVTVSS	low polyreactivity
QVQLVESGGGLVQAGGSLRLSCAASGRTFYTNAMGWYRQAPGKERELSTNYADSVKGRFTISRDNAKNTVYLQMNSLKPEDTAVYYCNADGFLRFAGFDYWGQGTQVTVSS	low polyreactivity
QVQLVESGGGLVQAGGSLRLSCAASGRTFYTNAMGWYRQARGKERELVAGISWGDGNTYYADSVKWRFTISRDNAKNTVYLQMNSLKPEDTALYYCAVTYIILWSYSHTEFDYWGQGNQVTVSS	low polyreactivity
QVQLVESGGGLVQAGGSLRLSCAASGRTFYTYAMGWYRQAPGKEREFVAAIDWSGGTTYYADSVKGRFTISRDNAKNTVFLQINSLKPEDTAVYYCAADDSFYRQYYYRAHGDYWGQGYQVTVSS	low polyreactivity
QVQLVESGGGLVQAGGSLRLSCAASGRTFYVNARGWYREAPGKERELVATISRGTRTYYADSVKGRFTISRDNAKNTVYLQMNSLIPEDTAVYYCAADARPYESPYYYWGQGTQVTVSS	high polyreactivity
QVQLVESGGGLVQAGGSLRLSCAASGRTFYVNTMGWYRQAPGKEREFVAAISYSGGRTYYADSVKGRFTISRDNAKNTVYLQMNSLKPEDTAVYYCATRINSWSAYTKYDYWGQGTQVTVSS	high polyreactivity
QVQLVESGGGLVQAGGSLRLSCAASGRTFYVNTMGWYRQAPGKEREFVAAITWRDGSTYYADSVKGRFTISRDNAKNTVYLQMNSLKPEDTAVYYCAARNSHDGYYDEYYYWGQGTQVTVSS	low polyreactivity
QVQLVESGGGLVQAGGSLRLSCAASGRTFYVYAMGWYRQAPGKERELVAAITKNGGNTYYADSVKGRFTISRDNAKNTVYLQMNSLKPEDTAVYYCAADKQGFLISYTGYDYWGQGTQVTVSS	low polyreactivity
QVQLVESGGGLVQAGGSLRLSCAASGRTFYVYTMGLYRQAPGKELELVAAISSSGGSTYYADSVKGRFTISRDNAKNTVYLQMNSLKPEDTAVYYCNSQWSLTRYGYWGQGTQVTVSS	high polyreactivity
QVQLVESGGGLVQAGGSLRLSCAASGRTFYVYVMGWYRQAPGKEREFVAAINYGSTYYADSVKGRFTISRDNAKNTVYLQMNSLKPEDTAVYYCATRSGYDSVYYFYTLWYYYWGHGTQVTVSS	low polyreactivity
QVQLVESGGGLVQAGGSLRLSCAASGRTFYWYALGWYRQAPGKERELVAAITKSGGSTYYADSVKGRFTISRDNAKNTVYLQMNSLKPEDTAVYYWAARYLYLLYYWGQGTQVTVSS	high polyreactivity
QVQLVESGGGLVQAGGSLRLSCAASGRTFYWYGMGWYRQAPGKERELVATISRGSRTYYADSVKGRFTISRDNAKNTVYLQMNSLKPEDTAVYYCNADTWPGEYNGYFSGAYDYWGQGTQVTVSS	high polyreactivity
QVQLVESGGGLVQAGGSLRLSCAASGRTFYYNAMGWSRQATGKERELVAAISGRAGSTYYADSVKGRYTISRDNAKNTVYLQMNSLKPEDTAVYYCNAVRYKYTGRFGYWGQGTQVTVSS	high polyreactivity
QVQLVESGGGLVQAGGSLRLSCAASGRTFYYNAMGWYRQAPGKEMELVAVITRGSTYYADSVKGRFTISRDNAKNTVYLQMNSLKPEDTAVYYCAKYRHYHRGYDYWGQGTQVTVSS	high polyreactivity

Sequence	polyreactivity (PSR sort gate)
QVQLVESGGGLVQAGGSLRLSCAASGRTFYYNAMGWYRQAPGKERELVARITSSGGSTYYADSVKGRFTISRDNAKSTVYLQMNSLKPEDTAVSYCAAGRSRYLWFGRDFDYWGQGTQVTVSS	low polyreactivity
QVQLVESGGGLVQAGGSLRLSCAASGRTFYYNAMGWYRQAPGKERELVASISWSGTSTYYADSVKGRFTISRDNAKNTVYLQMNSLKPEDTAVYYCATDSYWRQDLYRYEYWGQGTQVTVSS	high polyreactivity
QVQLVESGGGLVQAGGSLRLSCAASGRTFYYNDMGWYRQAPGKERELVAAISWSGVSTSYADSVKGRFTISRDNAKNTVYLQMNSLKPEDTAVYYCAADNDGWYFHITEYDYWGQGTQVTVSS	low polyreactivity
QVQLVESGGGLVQAGGSLRLSCAASGRTFYYNDMGWYRQAPGKERELVATISSGGSTYYADSVKGRFTISRDNAKNTVYLQMNSLKPEDTAVYYCAKRRRYDGWYAGPLYKYDYWGQGTQVTVSS	low polyreactivity
QVQLVESGGGLVQAGGSLRLSCAASGRTFYYYAMAWYRPAPGKERELVAAISWSGGRTYYADSVKGRFTISRDNAKNTVYLLMNSLIPVDTAVYYCNAEPPRGYTVSSGGEMDYWGQGTQVTVSS	low polyreactivity
QVQLVESGGGLVQAGGSLRLSCAASGRTFYYYAMGWYREAPGKERELVAAINSGVTTSYADSVKGRFTISRDNAKNTVYLQMNSLKPEDTAVYYCAARTFSAFWRGGYDYWGQGTQVTVSS	low polyreactivity
QVQLVESGGGLVQAGGSLRLSCAASGRTFYYYAMGWYRHAPGKERELVAAISIGGITYADSVKGRFTISRDNAKNTVYLQMNSLKPEDTAVYYCAATARQSRGRFYWGQGTQVTVSS	low polyreactivity
QVQLVESGGGLVQAGGSLRLSCAASGRTFYYYAMGWYRQAPGKEMELGAAIRRSGSSTYYADSVKGRFTISRDNAKNTVYLQMNSLKPEDTAVYYCAAAVYQRARYYWGQGTQVTVSS	high polyreactivity
QVQLVESGGGLVQAGGSLRLSCAASGRTFYYYAMGWYRQAPGKERELVAAINSGGTTSYADSVKGRFTISRDNAKNTVYFQMNSLKPEDTAVYYCAASDYGFPEYLTAYFYWGQGTLVTVSS	low polyreactivity
QVQLVESGGGLVQAGGSLRLSCAASGRTFYYYAMGWYRQAPGKERELVAAIRWRATSTFYADSVKGRFTISRDNAKNTVYLQMNSLKPEDTAVYYCATRGRWGYSGRSQGYSIYNYWGQGTKVTVSS	high polyreactivity
QVQLVESGGGLVQAGGSLRLSCAASGRTFYYYAMGWYRQAPGKERELVAAISGSGTNTYYADSVKGRFTISRDNAKNTVYLQMNSLKPEDTAVYYCAAEYFGFYTDGGVFDLYYWGQGTQVTVSS	low polyreactivity
QVQLVESGGGLVQAGGSLRLSCAASGRTFYYYAMGWYRQAPGKERELVAAISWTGGNTYYADSVKGRFTISRDNAKNTVYLQMNSLKPEDTAVYYCAKQTRGYVRGPMYYWGQGTQVTVSS	high polyreactivity
QVQLVESGGGLVQAGGSLRLSCAASGRTFYYYAMGWYRQAPGKERELVAAITGSGANTYYADSVKGRFTISRDNAKNTVYLQMNSLKPEDTAVYYCNTRTLVAMGYWGQGTQVTVSS	high polyreactivity
QVQLVESGGGLVQAGGSLRLSCAASGRTFYYYAMGWYRQAPGKEREYVASITWRGGRTYYADSVKGRFTISRDNAKNTVYLQMNSLKPEDTAVYYCAADGSYAIGGYGYWGQGTQVTVSS	high polyreactivity
QVQLVESGGGLVQAGGSLRLSCAASGRTFYYYAMGWYRQPPGKERELVAAIRWSTGSTYYADSVKGRFTISRVNAQITVYLQMNSLKPEDTAVYYCAADTWYIQWGYYWGQGTQVTVSS	low polyreactivity
QVQLVESGGGLVQAGGSLRLSCAASGRTFYYYDMGWYRQAPGKERELVAAIRRSGGSTYYADSVKGRFTISRDNAKNTVYLQMNSLKPEDTAVYYCAAGRRYSGSYDYRGQGTQVTVSS	high polyreactivity
QVQLVESGGGLVQAGGSLRLSCAASGRTFYYYTMGWYRQAPGKDRELVAAIRGSGGSTYYADSVKGRFTISRDNAKNTVYLQMNSLKPEVTAVYYCNATRRRSARYGYISAYDYWGQGTQVTVSS	high polyreactivity
QVQLVESGGGLVQAGGSLRLSCAASGRTFYYYTMGWYRQAPGKERELVAANTWNGGSTYYADSVKGRFTISRDNAKNTVYLQMNSLKPEDPAVYYCNARWTWRYDYWGQGTQVTVSS	high polyreactivity
QVQLVESGGGLVQAGGSLRLSCAASGRTFYYYVMGWYRQAPGKERELVAGITWSGGGTYYADSVKGRFTISRYNAKNTVYLQMNRLKPEDTAVYYCAKKDTLSNRWYGYWGEGTQVTVSS	high polyreactivity
QVQLVESGGGLVQAGGSLRLSCAASGRTFYYYYTMGWYRQAPGKERELVAAISRSGSTNYADSVKGRFTISRDNAKNTVYLQMNSLKPEDTAVYYCARSYRSDGSRFGYWGQGTQVTVSS	low polyreactivity
QVQLVESGGGLVQAGGSLRLSCAASGRTGYMGWYRQAPGKERELVAAITSRGGSTYYADSVKGRFTISRDNAKNTVYLQMNSLKPEDTAVYYCAAPAYHKRTSRGDYWGQGTQVTVSS	low polyreactivity

From the nanobody polyreactivity screen of Harvey et al. (2022)
